{"source": "patent US20240067734A1", "about": "(Hoffmann-La Roche, published 2024)", "binders": {"B1": {"name": "anti-NKG2D antibody clone 395 (antibody, V domains shown)", "VH": "QEQLEQSGGGLVTPGGSLKLCCTASGFDFNTFWMTWVRQAPGKGLEWIGCIHGGSGSRDYASWVNGRFTLSRDIDQSTACLQVNSLTAADTAMYYCARPGYRSWSKTFDLWGQGTMVTVSS", "VL": "DIQMTQSPSSLSASVGDRVTITCRASQDISGALNWYQQKPGKAPNLLIYAASSLQSGVPSRFSGSGSGTDYTLTISSLQPEDFATYYCQQANSFPLTFGGGTKVEIK", "notes": "From transgenic rabbits; rabbit VH, human VL"}, "B2": {"name": "anti-NKG2D antibody 5C5 (IgG) (antibody, V domains shown)", "VH": "not shown", "VL": "SSELTQDPAVSVALGQTVRITCQGDSLRSYYASWYQQKPGQAPVLVIYGKNNRPSGIPDRFSGSSSGNTASLTITGAQAEDEADYYCNSRDSFSIHQNVFGGGTKLTVL", "notes": "also called clone 5C5"}, "B3": {"name": "anti-NKG2D antibody clone 230 (antibody, V domains shown)", "VH": "QQLEQSGGGLVKPGGSLELCCIASGFDFSTYWMTWVRQAPGKGLEWIGCIHGGGSGTTSYASWVNGRFTLSRDIDQSTGCLQLTSLTAADTAMYYCARPGYRSWSKTFDLWGQGTMVTVSS", "VL": "B1 VL with R24Q, S26N, G31N, N45K, Y71F, T85A, N92A", "notes": "From transgenic rabbits"}, "B4": {"name": "anti-NKG2D antibody clone 013 (antibody, V domains shown)", "VH": "EQSGGGAGGGLVKPGGSLELCCKASGFDFSIYWMSWVRQSPGKGLEWIGRIYGGSSDYTAYASWVNGRFTLSRDIDQSTGCLQLNSLTAADTAMYYCVRLNPSFSRSFDYWGQGTLVTVSS", "VL": "DIQMTQSPSSVSASVGDRVTITCRASQGIFSWLVWYQQKPGKAPELLMYGASTLQSGVPSRFSGSGSGTDFTLTISSLQPEDFATYYCQQGYSTPYTFGQGTKVEIK", "notes": "From transgenic rabbits"}, "B5": {"name": "anti-NKG2D antibody clone 296 (antibody, V domains shown)", "VH": "EVQLLESGGGLVQPGGSLRLSCAASGFTFSSYAMSWVRQAPGKGLEWVSAIGIGGGGTYYADSVKGRFTISRDNSKNTLYLQMNSLRAEDTAVYHCAKGASFDFINFFPYWGQGTLVTVSS", "VL": "B1 VL with D28G, G31N, A32D, N34A, N45K, Y71F, A91T, N92Y, F94T", "notes": "From transgenic rabbits"}, "B6": {"name": "anti-NKG2D antibody clone 320 (antibody, V domains shown)", "VH": "EVQLLESGGGLVQPGGSLRLSCATSGFTFSDYAMSWVRQAPGKGLEWVSYNSFSVGSTDYADSVKGRFTISRDNSKNTLYLQMNSLRAEDTAVYYCSKHSGNYYTGPFHYWGQGTLVTVSS", "VL": "DIQLTQSPSFLSASVGDRVTITCRASQGISSYLAWYQQKPGKAPKLLIYAASSLESGVPSRFSGSGSGTDFTLTISSLQPEDFATYYCQQSYSTPITFGQGTRLEIK", "notes": "From transgenic rabbits; also called 320 IgG"}}, "key": {"[1]": {"biological_target": "T1, human NKG2D expressed on cells (human, UniProt P26718 1-216)", "T1 construct": "the cell type is named under assay; also called NKG2D on NK92 cells; HEK293T human NKG2D", "T1 chain": "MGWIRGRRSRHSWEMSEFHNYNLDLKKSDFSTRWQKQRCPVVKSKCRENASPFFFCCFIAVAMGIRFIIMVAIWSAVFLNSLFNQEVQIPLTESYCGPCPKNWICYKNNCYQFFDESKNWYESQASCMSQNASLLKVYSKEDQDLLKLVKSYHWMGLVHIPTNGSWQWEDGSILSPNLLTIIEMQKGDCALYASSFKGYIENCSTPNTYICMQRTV", "assay": "flow cytometry on NKG2D-positive NK92 cells, anti-human Fc secondary antibody", "experimental": "Viability of NK92 cells or tumor cells (MKN-45, LS180) was checked and cells were re-suspended and adjusted to a density of 1 mio cells/ml. 100 μl per well of this cell suspension (containing 0.1 mio cells) were seeded into a 96 well round bottom plate. The plate was centrifuged for 4 min at 400×g and the supernatant was removed. Then 40 μl of the diluted antibodies or FACS buffer were added to the cells and incubated for 30 min at 4° C. After the incubation the cells were washed twice with 150 μl FACS buffer per well. […] The cells were incubated for an additional 30 min at 4° C. To remove unbound antibody, the cells were washed again twice with 150 μl per well FACS buffer. To fix the cells, 100 μl of FACS buffer containing 1% PFA were added to the wells. Before measuring, the cells were re-suspended in 150 μl FACS buffer. The fluorescence was measured using a BD flow cytometer."}, "di huNKG2D ECD Fc avi": {"biological_target": "T2, di huNKG2D ECD Fc avi (human, biotinylated at the avi-tag)", "T2 construct": "Dimeric fusion of human NKG2D ECD to the C-terminus of an avi-tagged human IgG1 Fc", "assay": "SPR Biacore; IgG captured by anti-Fab, antigen analyte; TraceDrawer fit", "experimental": "(§1) Around 1500 resonance units (RU) of the capture antibody (10 μg/ml human Fab Capture Kit, GE Healthcare Life Sciences, #28958325) were coupled onto a CM5 chip (GE Healthcare, #BR-1005-30) using a BIACORE® B4000 instrument (GE Healthcare) at pH 5.0 by using an amine coupling kit supplied by GE Healthcare. The sample and system buffer was PBS-T (10 mM phosphate buffered saline including 0.05% TWEEN® (polysorbate) 20) pH 7.4. The flow cells were set to 25° C.—and the sample block set to 12° C.—and primed twice with running buffer. The antibody was captured by injecting a ˜10 μg/ml solution for 60 sec at a flow rate of 10 μl/min. Association was measured by injection of di huNKG2D ECD Fc avi (SEQ ID NO: 96) or di cyNKG2D ECD Fc avi (SEQ ID NO: 97) in various concentrations in solution for 180 s at a flow rate of 30 μl/min starting with 600 nM, 300 nM, 150 nM following […] dilutions. The dissociation phase was monitored for up to 450 s and triggered by switching from the sample solution to running buffer. The surface was regenerated by 2×90 s washing with a glycine pH 2.1 solution at a flow rate of 30 μl/min and an additional stabilization period of 180 s. Bulk refractive index differences were corrected by subtracting the response obtained from an anti-human Fab surface. Blank injections were also subtracted (=double referencing). For calculation of KD, kₐ and kd (see Table 8), the Langmuir 1:1 model in the BIACORE® 4000 Evaluation software 1.1 (GE Healthcare) or TraceDrawer 1.6.1 (Ridgeview Instruments AB) were used."}, "[2]": {"biological_target": "T1, human NKG2D expressed on cells", "assay": "flow cytometry; expanded human NK cells", "experimental": "(§2) Viability of expanded NK cells was checked and cells were adjusted to a density of 1 mio cells/ml in FACS buffer. 100 μl of these cell suspensions (containing 0.1 mio cells) were seeded into a 96 well round bottom plate. The plate was centrifuged for 4 min at 400×g and the supernatant was removed. Then 0.5 μl FC BLOCK™ (BD Bioscience) in 20 μl total volume per well were added and the plate was incubated for 30 min at 4° C. Supernatant was removed and then 40 μl of the diluted NKG2D antibodies were added to the cells and incubated for additional 30 min at 4° C. After the incubation the cells were washed twice with 150 μl FACS buffer per well. Then 20 μl of the diluted FITC anti-human Fc specific secondary antibody (Jackson ImmunoResearch, #109-096-098) was added to the cells. The cells were incubated for an additional 30 min at 4° C. To remove unbound antibody the cells were washed again twice with 150 μl per well FACS buffer. To fix the cells 100 μl of FACS buffer containing 1% PFA were added to the wells. Before measuring the cells were re-suspended in 150 μl FACS buffer. The fluorescence was measured using a BD CantoII flow cytometer."}, "[3]": {"biological_target": "T1, human NKG2D expressed on cells", "assay": "flow cytometry; expanded human NK cells; NK cells, Table 11 immune-cell binding", "experimental": "as §2"}, "[4]": {"biological_target": "T1, human NKG2D expressed on cells", "assay": "flow cytometry; NK92 cells; NK92 cells, Table 11 immune-cell binding (concentration dependent)"}, "di cyNKG2D ECD Fc avi": {"biological_target": "T3, di cyNKG2D ECD Fc avi (cynomolgus, biotinylated at the avi-tag)", "T3 construct": "Dimeric fusion of cynomolgus NKG2D ECD to the C-terminus of an avi-tagged human IgG1 Fc; also called recombinant cynomolgus NKG2D", "T3 sequence (chain, as listed by the source limits assumed)": "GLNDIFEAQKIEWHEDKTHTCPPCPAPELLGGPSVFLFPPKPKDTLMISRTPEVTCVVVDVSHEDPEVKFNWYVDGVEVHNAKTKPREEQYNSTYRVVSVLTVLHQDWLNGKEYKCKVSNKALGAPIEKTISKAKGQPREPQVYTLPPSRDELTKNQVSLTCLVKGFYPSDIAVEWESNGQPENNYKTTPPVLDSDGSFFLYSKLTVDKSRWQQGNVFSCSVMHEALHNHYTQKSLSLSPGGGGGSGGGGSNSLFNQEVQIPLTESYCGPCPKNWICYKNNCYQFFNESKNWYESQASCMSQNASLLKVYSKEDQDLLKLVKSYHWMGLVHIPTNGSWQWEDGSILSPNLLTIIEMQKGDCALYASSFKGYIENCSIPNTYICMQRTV", "assay": "SPR Biacore; IgG captured by anti-Fab, antigen analyte; TraceDrawer fit", "experimental": "as §1"}}, "note": "Residue numbers refer to the chain shown, from its start.", "data": [{"binder": "B1", "values": [{"measurement": "EC50 (read off the curve)", "setting": "[1]", "value": "~2", "unit": "nM"}]}, {"binder": "B2", "values": [{"measurement": "Kd", "setting": "di huNKG2D ECD Fc avi", "value": 63, "unit": "nM"}, {"measurement": "koff", "setting": "di huNKG2D ECD Fc avi", "value": 0.014, "unit": "s⁻¹"}, {"measurement": "kon", "setting": "di huNKG2D ECD Fc avi", "value": 220000, "unit": "M⁻¹ s⁻¹"}, {"measurement": "EC50", "setting": "[2]", "value": 0.4, "unit": "nM"}]}, {"binder": "B3", "values": [{"measurement": "EC50", "setting": "[2]", "value": 2.87, "unit": "nM"}]}, {"binder": "B4", "values": [{"measurement": "EC50", "setting": "[3]", "value": 48.8, "unit": "nM"}, {"measurement": "EC50", "setting": "[4]", "value": 122, "unit": "nM"}]}, {"binder": "B5", "values": [{"measurement": "Kd", "setting": "di cyNKG2D ECD Fc avi", "value": 710, "unit": "nM"}, {"measurement": "koff", "setting": "di cyNKG2D ECD Fc avi", "value": 0.09, "unit": "s⁻¹"}, {"measurement": "kon", "setting": "di cyNKG2D ECD Fc avi", "value": 130000, "unit": "M⁻¹ s⁻¹"}, {"measurement": "EC50", "setting": "[2]", "value": 0.48, "unit": "nM"}]}, {"binder": "B6", "values": [{"measurement": "EC50", "setting": "[2]", "value": 3.68, "unit": "nM"}]}]}
